# Experiment: soluble on expression in E. coli; label from the status in PepcDB or PDB records
row,Sequence,soluble on expression in E. coli
1,MGSDKIHHHHHHMLHPIILAGGVTQTSEWSTGVCHLALETAPGVPSRFEGVLDAMSGDVFADPVVVTTRDNMSLVERQIAARPAALIVEPETHKPAAALLSAVLSLRHMPGALVVVAPATANLADTRNLDKALCNAIPAAQRGEIVMFGQRTTRAYGGFGIMEVVTQPHENAPVAVSRVLASGRKVTLSHLLHGNHQLWGTGLYLARVDVLLAAFKSHASRLFLPVKNALLRAGTVDRTTLLDRATYRRVKAITFEKAVAEKIENICAIQLDPTWSALEEWDQDAAADSAVAQWDEDLAQERAGVLNARAAAPFPHSADMMAVYASLSKISAEDALSAHATEYDWGRLESLAMGPGFTLQRMSIAPGATLDLNAAPGGAEHWIVAQGSVLITIGDHVRLVWEGHSARIPAGRSRRIENPGSGTLVLVQLQVMPLSATGQPQSAASFSPAGVA,not soluble
2,MGSDKIHHHHHHMTLLRGDDFFTSRAVTVAVEPRTPQTAFPEHYHDFWEIVLVEQGAGVHVFNDQPYALCSGSVFFVRDNDRHLFEDVEGLCLTNMLYRSPRGFRFLSDIAAFLPYGPNGEWQGQWQVNAAGMQQLKQSLNSLAGLAQSDAPEAIAASESLFLQILVQLRQHCFQTEGNGSERQGVQALLGWLQNNYSEEVNWGGLADQFSLPLRTLHRQLKQHTGMTPQRYLNRLRLLEARRRLQQSDDSITTIAHACGFSDSNHFSTQFRKAFSQAPKSLRHQAFSREE,not soluble
3,MGSDKIHHHHHHMNILMLMLSDNPDTGGMEKHARELSSELARLGHTVTLAAASQHLSDLEPAVKTRALDTGGSRNSPFLLLTVLRLIRANGFDVIHAQGTKAAFVLQRLTPFTRSLMRVATIHGFKSRYPKAAAFHQLIAVSQALATDIAQPGVTVIYNGVSVIPQAPALLPKETERPVWLAVGRLVSVKGFDFLIRTFQYCPGTLLIAGDGPERQRLADLISSTHQSETVKLLGFRSDVPALMAAADGVVISSEREGFSYVCAEALLLGKPVISTDVPIANEILPEKHIFRGEDPKRFAAYLSQDTSTLVAEQAEAQAFAADQLSLSSMASQTLNVYQRAIANLVSIH,not soluble
4,MTSESSGNTGGAMDEPTEKKPKEFSDLPDHVLQRIMEKVEPSDRLSVRKVNRNLRQLIDEMDPGFRSISVNISTRKGVLVSYDNGSFIHYQQVYDDCEMFGRKEKKRFFNENAVKMAINDVIRVMSHPMSNVKLFRTGIPTKPEMERSRSTGKQWKRAKILCANRGFMEVSMKHLCHFSRVVVNQARTSMQTAIEIRDILLKSTSIEYVDFCSRDGVTIDAVRVFIPETANVNQTTDYDNFTFSSSMCSLNFKKKR,not soluble
5,MGSDKIHHHHHHMTVNSIKLLLLPALLLLVSACSSPEPIISLSGSTMGTTYHIKVVNSDRLPEAQLLQAEIDMALEVVNDQMSTYRSDSELSKFNQLQVQQSVKVSADTIKVIEEGMRLYQETDGALDITLGPVVNLWGFGPDKRPTTIPTQAQIDNAKAKMGIKELSIKGLTLTKHNADLYVDLSSIAKGFGVDKIAAILDKYHVSGYLVEIGGELNVKGTKDDNTPWRVAVEQPTTEGQAVQQVIEPGTMSLATSGDYRNFYQENGERFSHLIDPRNGYPIKHQLASATVLHSSCMTADGYATAMMVLGTEASLALAKEKNLAIMLIEKQEQGYQVYYSDAFKSYVK,not soluble
6,MKKKDTCEIFGYDEEKVNRIQGDLQTVDISGVSQILKAIADENRAKITYALCQDEELCVCDIANILGVTIANASHHLRTLYKQGVVNFRKEGKLALYSLGGEAIRQIMMIALAHKKEVKVNV,soluble
7,GPGSMDTLTHLSHTLREAMSDIVPESHPEHPFNLIPELCRKFYDLGWATGTGGGISIKMGENYYIAPSGVQKERIKPNEIFVLNASQDVVEEPRTEKQLKISECTPLFFNAYRMRGAGACLHTHSANCVLISLLCDREFRISHIEMIKGIINNETKKALGFRDTLVIPIIENTDFERDLTASMAECMERYPESCAVLVRRHGMYVWSDTWQKAKGAVECIDYLMGLAIRMRTLGLEWEPKDVK,soluble
8,MSGNSLKGKRIGFGLTGSHCTYDAVFPEIEKLVNEGAEVLPIVTYTVKTTNTRFGEGEEWVKKLEQLTGNEVIDTIVKAEPLGPKIPLDCMVIAPLTGNSMSKLANAMTDSPVLMAAKATMRNHRPVVLGISTNDALGLNGVNLMRLMAAKNIYFIPFGQDAPQAKPNSMVAYMPLLRDTILAALEGKQLQPVIIERFRYN,not soluble
9,MDFHLRNKLNLPGNLPQPPNTNLNLPPNVPALLIQSSIKYSELEKFVRRGLHASGVFVIEDPTTTGVAQLKILSERWGDLPTAIDIQGRAQEYSLRYAAIFTLIDGNGEVVVPQQVIELSRDYRSPPVDATGTTTEREILVNELRRDMSASILRRIDSVIRSRLEKRELLEQAKPPSPATSGALEHHHHHH,not soluble
10,MDYLYHPYPSQRMTVFAKNGVVATSQPLAAQAGLDVLKKGGNAIDAAIAAAACLTVVEPTSNGIGGDAFALVWTDGKLYGLNASGYAPKSISIEALKELGYTEMPKYGFAPVTVPGAPAAWAALSKRFGRLPLVETLAPAIAYAENGYPVSPVLGKYWAAAFRTYKEALRGPEFAAWFATFAPGGRAPKIGEVWASPDHAATLRSIAETEAESFYRGELAEKIAAFSKQYGGFLAADDLAEYEPEWVEPISVSYRGYEVWEIPPNGQGIVALMALNIMNGFDVPSVSDVETHHRQIEAMKLAFADGKAYIADRRYMNCSPDELLSESFAAMRRAQIGEEALTPEPGTPPKGGTVYLAAADGEGNMVSFIQSNYMGFGSGLVVPGTGIALHNRGHNFAFDESHPNGLAPRKKPYHTIIPGFLTKGGAPVGPFGVMGGFMQPQGHLQVIMNTVDFDLNPQAALDAPRWQWMEGKTVLVEPHFPRHIAEALARKGHDIRLALDSGLFGRGQIIWRDPDTGVLAAGTEPRTDGAVAAW,not soluble
11,MGSDKIHHHHHHMPHSLHPLFQAIATAPTEQTLRLTVMDNISEYFGVQRWGIYLLDTNNNLASVEAKGVSDTFIEQYQRFGKAVDPVLKYVLENHAPAHEELVLPEGTWKQSELYQRCCSTHDHEHIMTGPLVGQGQLIGTINFARIGHIPAFNHLELASLGAVCTHFSARLAELRKPHSVSGQISNRLTSREIQIANLVAKGLTNAEIGAELWITHNSVKQALKRIFRKLEVSARTEMVAKLRDII,not soluble
12,MIPKSTGYLADLNIHWKNYIQYLHKIEVAPKTKLQLLHDVANRIFIVESGSVRMGFEKDGKDITLQFFFEDELVASVESLFNQTPSKYFIETIEHSTIYYLTKEMLEVMALKLPEMANITQDILMSRLIYYSNHLHSYISETPEQRFNKLIETRPYIFMRVSQRHIASYLGITNVSLSRIKARKSVVYDQQPATVSVAEADNEEYLKS,not soluble
13,MTPNKEDYLKCIYEIGIDLHKITNKEIAARMQVSPPAVTEMIKRMKSENLILKDKECGYLLTDLGLKLVSELYRKHRLIEVFLVHHLDYTSDQIHEEAEVLEHTVSDLFVERLDKLLGFPKTCPHGGTIPAKGELLVEINNLPLADIKEAGAYRLTRVHDSFDILHYLDKHSLHIGDQLQVKQFDGFSNTFTILSNDEDLQVNMDIAKQLYVEKIN,not soluble
14,GDKLLPKTLSKEIVSEPFAKNQLREKARLTNIKGLEIPRVSYTLDDDDFITDVETAKELKAKGDTVKFTTNKFKVFAAISDTVIHGSDVDLVNWVENALQSGLAAKERKDALAVSPKSGLEHMSFYNGSVKEVEGADMYDAIINALADLHEDYRDNATIYMRYADYVKIISVLSNGTTNFFDTPAEKVFGKPVVFTDAAVKPIVGDFNYFGINYDGTTYDTDKDVKKGEYLFVLTAWYDQQRTLDSAFRIAKA,soluble
15,MSEFFIQEQQLGKVTRTIVKDQAGRSLFLLVGRWGTRGDALSLYAMNGEILASIKQVSWTFGTRFELYQRFEKVGTLRKLFNLNADFYYVQGLHWAVVGDIKAHQYSIYQVHKKIMSMDKTMLCTGDYFVLTVANDEDAPLCICIAAVLDYWLYNKKKQKTSDDFGLDFDPLTD,not soluble
16,MSNHDQLHRYLFANHAVRGELVSVNETYQQVLANHDYPPAVQKLLGEMLVATSLLTATLKFDGDITVQLQGGDGPLTLAVINGNNRQEMRGVARVKGEISDDSTLQEMVGNGYLVITITPAQGERYQGVVALEGETIAACLENYFMQSEQLPTRLFIRTGHVADKAAAGGMLLQVLPAQERNEDEFDHLAQLTATIKAEELFTLPANEVLYRLYHQEEVTLYEPQNVSFRCTCSRQRCADALVTLADDDVTEMLEQDGNIDMHCEYCGNHYLFDAVDIATLKNGNSASSEQIH,not soluble
17,MGSDKIHHHHHHMSEAILNICSVSKRFGDNLANDDISLSLGKGEIVALLGENGAGKTTLMSILFGHYVPDSGKVLVEGRELPPGKPRAAIRAGIGMVHQHFSLAPNLTVLENVMAGTERLWHLRSGTSAARRKLHRICQRFGLTVEPDARVGDLSVGEQQRVEILKALYNDAHILVLDEPTAVLTNLEAERLFSTLKDMAREGLSLIFISHKLDEVMAAANRIVVLRGGRKVAERLAKETNKAELAELMVGRRVARPVREPSTPGEVVLKVADVSVSIDGVERLKSIDFSLRAGEVLGIIGVSGNGQTTLAHLLSGTLRRDKGDLLLFGEPIGDLTVDDAVRAGIGRIPEDRNKEGAIGEMAIWENAVLERLPRFSRYGLVDRPSGQAFAGQIIDAFDVRGGRPTTRTRLLSGGNMQKLILGRNLMDRPRILLAAQPARGLDEGAVAAVHERLLEARRAGTAVLLISEDLEEVMALADRIQAIVNGRLSPPIAADSASATKLGLMMAGEWNEEHEVPHAF,not soluble
18,MENIMKITIINGSPRFKKSNSEILKNYLLNFIKENEINEFFSFSIKLDDDIKTDIYNSDILIFIFPLYVDSIPANLLDLLVRFEDENVINSKTKIYCIVNNGFFEGVQNHLAISQIRCWSKKVNAQWGQGIGVGGGELLSHLKKVPLGQGPLKNLGIILEKFSKNILSLKGDEDIYINPNYPKILYFLQANISWFIEGRKNKLKFRDLFKKILEHHHHHH,not soluble
19,MIAITGATGQLGQHVIENLLKTTPASHLVAIVRNPKKAAPLSQRGIAVRQADYANEAALTTALQGVDKLLLISSSEVGQRTAQHRNVIQAAIAAKVKFIAYTSLLHADKSPLALADEHIETEKMLAESGIPHTLLRNGWYTENYLASVPAALKHGVFIGAAGEGKIASAMRADYAAAAARVIREEGHAGNVYELAGDDAWTLSQLADELTHQSGKKIVYQNLSEVDFAAALKGAGLPDGLADMLANSDAGAAKGGLFDDSHTLRKLIGRPTTTLTESLRSVL,not soluble
20,MGSDKIHHHHHHMNTLASIQELARAIRNMIRTGIVVETDLDAGRCRVQTGGIYTDWLQWLTHRAGRSRTWWAPSIGEQVMILAVGGELDTAFVLPGIYSDDNPAPSASADAWHVEFPDGAVMSYEPETGALTVTGIKTADVTASDSVAVSVPVVLVKAETRVTLDTPEVVCTNKLTTGTLEVKQGGKMSGDIEHSGGAFTSNGVQVDKHGHGGIRRGDEWTEGTQ,not soluble
21,MFPLFPNPQTRRTMSVLSEQVDGRPPQPPSGRRGKRWLRAIAAGALLAAGGGASTQPVAQQAPQSHARKVKVLIISMFAPEAQPWIDKLGLTQAVPVPGLSIDYPSVHCNASDVCQLTTGMGKANAASSVSALIHSGQFDLSRAYFLVAGIAGIDPSQGTLGTAAWARYLVDSDLAWEIDAREVPADWPNGFIGINTQGPGQKPPLNYKTEIFRVNEALLQKALALSKGAVLDDNATARAYRANYPSAPANQPPAVVQCDTAAGNTYWHGALLGQREAAWVKLLTDGQGTYCTTQQEDNATFEALTRGSKAGLLDLQRVAVLRTASNFDRPYPGQTPYDSLVGSNSGGFVPSLNNLYLAGGPLVNDIVTRWSVWKHGVPSPLEHHHHHH,not soluble

# — the DeepSol protein solubility set
